In patent publication US20260258125A1 (NONA BIOSCIENCES SUZHOU, published 2026):

B1: PR304294 (antibody, human IgG1, kappa, V domains shown)
VH: EVQLLESGGGLVQPGGSLRLSCAASGFTFSSYAMSWVRQAPGKGLEWVSAISGTTYNTYYAGSVKGRFTISRDNSKNTLYLQMNSLRAEDTAVYYCAKGISVAGYYYYGMDVWGQGTTVTVSS
VL: EIVMTQSPATLSVSPGERATLSCRASQSVISNLAWYQQKPGQAPRLLIYGASTRATGIPARFSGSGSGTEFTLTISSLQSEDFAVYYCHQYNNWPLTFGGGTKVEIKR
notes: Recombinant full antibody
B2: PR304171 (antibody, human IgG1, kappa, V domains shown)
VH: not shown
VL: EIVMTQSPATLSVSPGERATLSCRASQNVISNLAWHQQKPGQAPRLLIYTTSTRATGIPARFSGSGSGTEFTLTISSLQSEDFAVYYCQQYNNWPLTFGGGTKVEIKR
notes: Recombinant full antibody

Tests used:
[1] = biological target: T1, recombinant CEACAM5-his protein, biotinylated (UniProt P06731 35-685, limits assumed, biotinylated (sites not given)); test: Octet epitope binning on biotinylated CEACAM5-his; competitor PR303561
T1 construct: not shown: His tag
T1 sequence (looked up): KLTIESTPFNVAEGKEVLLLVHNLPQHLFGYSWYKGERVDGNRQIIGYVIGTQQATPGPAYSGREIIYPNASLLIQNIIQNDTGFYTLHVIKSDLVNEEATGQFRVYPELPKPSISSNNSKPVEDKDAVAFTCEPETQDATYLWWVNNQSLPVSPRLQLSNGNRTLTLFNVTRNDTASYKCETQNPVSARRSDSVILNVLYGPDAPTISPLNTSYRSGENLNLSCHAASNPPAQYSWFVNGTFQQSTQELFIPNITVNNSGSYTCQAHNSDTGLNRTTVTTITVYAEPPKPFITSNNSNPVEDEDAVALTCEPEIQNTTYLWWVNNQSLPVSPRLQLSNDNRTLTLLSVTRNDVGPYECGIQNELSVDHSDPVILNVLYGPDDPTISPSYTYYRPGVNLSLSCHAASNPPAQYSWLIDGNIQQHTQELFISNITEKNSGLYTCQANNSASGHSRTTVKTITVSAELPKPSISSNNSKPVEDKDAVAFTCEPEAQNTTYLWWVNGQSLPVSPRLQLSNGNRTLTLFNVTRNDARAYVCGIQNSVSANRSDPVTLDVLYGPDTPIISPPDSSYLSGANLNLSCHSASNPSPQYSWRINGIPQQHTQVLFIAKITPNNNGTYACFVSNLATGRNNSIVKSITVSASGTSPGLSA
Description: (§1) In epitope binning analysis using Octet, antibodies were tested against other antibodies in a pairwise fashion to see if antibodies block one another's binding to the epitope of the antigen. The first and second antibodies was diluted into same concentration which could saturate the binding of immobilized antigens. Recombinant CEACAM5-his protein was biotinylationed and was then used as antigen and immobilized to SA sensor. The first antibody was associated with antigen and then followed by the second antibody. Data were analyzed by ForteBio Data Analysis Software (version 8.0, Pall ForteBio). The rate of RU values of the same antibody as 2nd antibody to as 1st antibody was calculated as the co-binding rate of this antibody to other antibodies.

[2] = biological target: T2, cynomolgus CEACAM5 on CHO-K1 cells (CHOK1-cyno CEACAM5 cells) (cynomolgus monkey); test: flow cytometry on CHOK1-cyno CEACAM5 cells
T2 construct: whole, on cells; also called CHOK1-cynoCECAM5
Description: Binding of recombinant anti-CEACAM5/6 dual-binding antibodies against human or cynomolgus CEACAM5 or CEACAM6 stable cells were detected by flow cytometry. […] Anti-CEACAM5/6 dual-binding antibodies were incubated with the stable cell lines. Anti-CEACAM5/6 dual-binding antibodies were serially diluted in staining buffer (PBS containing 2% FBS). 50 μL of diluted antibody solution was added to 50 μL of cell suspension containing 1-2×10⁵ cells and incubated at 4° C. for 1 hour. […] After 1-hour incubation at 4° C., cells were washed twice and run on a flow cytometer. […] The results were shown in FIGS. 8-10 and Tables 6 below.

[3] = biological target: T1, recombinant CEACAM5-his protein, …; test: Octet epitope binning on biotinylated CEACAM5-his; competitor PR304171
Description: as §1

[4] = biological target: T1, recombinant CEACAM5-his protein, …; test: Octet epitope binning on biotinylated CEACAM5-his; competitor PR304169
Description: as §1

human CEACAM6 protein = biological target: T3, human CEACAM6 protein (human, UniProt P40199 35-320); test: ELISA, antigen coated on plate
T3 construct: also called huCEACAM6
T3 sequence (looked up): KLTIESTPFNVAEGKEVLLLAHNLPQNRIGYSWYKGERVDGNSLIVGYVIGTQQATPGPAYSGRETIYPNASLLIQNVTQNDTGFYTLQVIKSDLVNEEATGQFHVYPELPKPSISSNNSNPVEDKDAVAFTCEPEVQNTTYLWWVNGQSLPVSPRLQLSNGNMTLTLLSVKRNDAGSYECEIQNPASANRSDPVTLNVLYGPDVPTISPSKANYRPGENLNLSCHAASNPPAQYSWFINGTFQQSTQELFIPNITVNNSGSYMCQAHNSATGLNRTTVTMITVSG
Text: (§2) Binding of recombinant anti-CEACAM5/6 dual-binding monoclonal antibodies against human and cynomolgus CEACAM5, and human CEACAM6 (Uniprot P40199), human CEACAM 1, 3 (NP_001806.2, Sino Biological 11933-H08H) and 8 (NP_001807.2, Acro Bio CE8-H5224) were detected by ELISA. Anti-CEACAM5/6 dual-antibodies were serially diluted in staining buffer (PBS containing 2% FBS). […] ELISA was used to test the binding between antibody containing supernatant or purified antibodies and the antigen. Briefly, the antigens were coated on a 96-well high binding plate overnight at 4° C. The plate was washed with PBST three times, incubated with blocking buffer (2% Bovine Serum Albumin) for one hour at 37° C., washed with PBST three times and incubated with antibody containing supernatant or purified antibodies at desired dilutions or concentrations for one hour at 37° C. A secondary antibody, anti-human Fc-HRP (Jackson Laboratory, 109-035-097) was used for detection of the targeted antibody. TMB and stopping solution were used for detection of HRP signal. The HRP signal was read on a SPECTRAMAX plate reader.

human CEACAM1 protein = biological target: T4, human CEACAM1 protein (human, UniProt P13688 35-428); test: ELISA, antigen coated on plate
T4 construct: also called huCEACAM1
T4 sequence (looked up): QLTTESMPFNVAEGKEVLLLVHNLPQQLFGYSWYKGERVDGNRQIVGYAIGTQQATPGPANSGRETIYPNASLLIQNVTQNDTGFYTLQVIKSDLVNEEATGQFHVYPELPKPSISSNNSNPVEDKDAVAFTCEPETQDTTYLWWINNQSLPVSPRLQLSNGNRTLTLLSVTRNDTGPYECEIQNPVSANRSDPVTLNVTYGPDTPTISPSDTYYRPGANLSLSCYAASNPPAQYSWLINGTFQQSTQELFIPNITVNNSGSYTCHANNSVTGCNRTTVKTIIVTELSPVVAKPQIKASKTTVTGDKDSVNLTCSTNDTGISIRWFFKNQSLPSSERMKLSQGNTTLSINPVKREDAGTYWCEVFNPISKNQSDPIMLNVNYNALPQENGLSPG
Text: as §2

human CEACAM5 protein = biological target: T5, human CEACAM5 protein (human, UniProt P06731 35-685); test: ELISA, antigen coated on plate
T5 construct: also called huCEACAM5
T5 sequence (looked up): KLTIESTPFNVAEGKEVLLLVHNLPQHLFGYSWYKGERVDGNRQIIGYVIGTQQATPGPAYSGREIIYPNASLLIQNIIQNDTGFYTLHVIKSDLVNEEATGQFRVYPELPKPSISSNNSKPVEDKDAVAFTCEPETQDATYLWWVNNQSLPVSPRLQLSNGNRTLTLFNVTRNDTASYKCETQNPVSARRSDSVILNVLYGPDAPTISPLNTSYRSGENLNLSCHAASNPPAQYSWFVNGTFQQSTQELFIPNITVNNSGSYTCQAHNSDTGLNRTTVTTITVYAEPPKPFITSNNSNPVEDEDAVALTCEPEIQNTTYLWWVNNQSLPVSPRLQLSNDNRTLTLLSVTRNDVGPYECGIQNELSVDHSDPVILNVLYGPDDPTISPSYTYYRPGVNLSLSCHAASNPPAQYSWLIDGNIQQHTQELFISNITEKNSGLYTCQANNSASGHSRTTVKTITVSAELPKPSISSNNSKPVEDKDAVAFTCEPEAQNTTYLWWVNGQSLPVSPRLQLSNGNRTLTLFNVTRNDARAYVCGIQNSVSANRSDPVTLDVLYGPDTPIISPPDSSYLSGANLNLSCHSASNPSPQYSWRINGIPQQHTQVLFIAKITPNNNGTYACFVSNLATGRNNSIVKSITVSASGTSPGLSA
Text: as §2

cyno CEACAM5 protein = biological target: T6, cyno CEACAM5 protein (cynomolgus monkey); test: ELISA, antigen coated on plate
T6 construct: also called cynomolgus CEACAM5
Text: as §2

Row | co-binding rate [1] [%] | EC50 [2] [nM] | co-binding rate [3] [%] | co-binding rate [4] [%] | EC50 (human CEACAM6 protein) [nM] | binding result (human CEACAM1 protein) | EC50 (human CEACAM5 protein) [nM] | EC50 (cyno CEACAM5 protein) [nM] | Binder
1 | 102 | 2.51 | -4.88 | 1.02 | 0.22 | no binding | 0.04 | 0.09 | B1
2 | 101 | 14.9 | 13.7 | 20.4 | 24.1 | no binding | 0.15 | 1.25 | B2
